Here are results for two molecules from patent publication US20250215052A1, “INHIBITORS OF PICK1 AND USES THEREOF” (University of Copenhagen, priority 2018, published 2025).

Assay [1] addresses T1, fluorescently labelled recombinant rat PICK1 (DY549-SNAP-PICK1) (rat), Q9EP80. Description: SCMS, dissociation of PICK1 pre-bound to TacDAT C24 sheets by peptide.
In assay [2] the target is T2, Protein Interacting with C Kinase-1 (PICK1), purified recombinant, Q9EP80. The experiment in a line: fluorescence polarization competition, tracer 5-FAM-TAT-C5, purified PICK1.
The target of assay [3] is T1, fluorescently labelled recombinant rat ….
Assay [4] deals with T2, Protein Interacting with C Kinase-1 …. The experiment in a line: fluorescence polarization competition, tracer 5FAM-TAT-(C5), purified PICK1.

Like-named read-outs stand apart in the source and are kept apart here.

T2 sequence (Q9EP80 whole entry): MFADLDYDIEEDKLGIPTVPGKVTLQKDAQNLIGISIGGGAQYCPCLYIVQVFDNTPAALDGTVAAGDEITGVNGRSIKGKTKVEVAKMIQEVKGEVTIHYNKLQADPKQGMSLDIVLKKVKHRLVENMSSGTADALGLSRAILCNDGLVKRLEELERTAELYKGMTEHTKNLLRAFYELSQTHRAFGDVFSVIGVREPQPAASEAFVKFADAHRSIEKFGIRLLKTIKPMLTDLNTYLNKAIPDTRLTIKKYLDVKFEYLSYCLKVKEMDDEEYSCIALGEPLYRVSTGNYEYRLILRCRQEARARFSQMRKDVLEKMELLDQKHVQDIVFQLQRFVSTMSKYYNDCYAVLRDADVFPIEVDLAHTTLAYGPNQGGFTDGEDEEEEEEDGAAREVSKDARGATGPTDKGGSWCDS
T1 sequence (Q9EP80 whole entry): as above

B1: TAT11-PEG4-(DATC5)2 (peptide)
peptide 1: HWLKV
peptide 2: YGRKKRRQRRR
modifications: not checked
B1: in assay [1], the half-inhibitory concentration (IC50) worked out at 1170 nM. In assay [2], the Fold affinity change (vs TAT-P4-(C5)2) worked out at 1 fold and the inhibition constant Ki came to 4 nM. The IC50 in assay [3] was 7 nM. For the same molecule, in assay [4], the Ki came to 6.6 nM and the fold shift in affinity was determined as 301 fold.

B2: TP10-P4-(C5)2 (peptide)
peptide 1: HWLKV
peptide 2: […]
modifications: not checked
Turning to B2, in assay [2], the Fold affinity change (vs TAT-P4-(C5)2) was found to be 0.5 fold and the Ki stood at 7.8 nM.
